± gives the standard deviation of the averaged measurements.
system: ATP; assay: switch fluorescence ratio, 500 uM ATP over buffer (Cy3 cluster intensity, sum of 5 cycles each) (fold (ratio)); higher = stronger signal-on switching upon ATP binding; sequences stand for … in TCGTCGGCAGCGTCAGATGTGTATAAGAGACAGTTTTTTTTTTTTTTTTTTTTTTTTT…TC; conditions: aptamer strand: ATP DNA aptamer (quencher-CACCTGGGGGAGTATTGCGGAGGAAGG + anchor), 100 nM annealed; ATP concentration: 500 uM
In short: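 After annealing to 100 nM quencher-labelled ATP aptamer, Cy3-labelled switching-strand clusters on a modified Illumina MiSeq flow-cell were imaged in selection buffer. A second image followed after 15 min with 500 uM ATP at 22 °C, and five such buffer/ATP cycles were done, each separated by NaOH stripping and re-annealing. The fluorescence ratio, averaged per switch-domain sequence, is summed target-cycle over summed buffer-cycle Cy3 intensity per cluster, with clusters outside 100-1000 RFU excluded.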
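Further: ATP exposure 15 min at 22 °C before imaging.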

Sequence | switch fluorescence ratio
AGGGTTGTTG | 0.999 ± 0.015
AGGGAGAGAG | 0.997 ± 0.022
AGGTAAAAAG | 1.02 ± 0.017
GTTTTGTGTA | 1.01 ± 0.074
GAAGGGAGGT | 0.987 ± 0.012
GATTTTTACG | 1 ± 0.033
TACGCCTGTG | 1.01 ± 0.037
TTGCGCTCGT | 0.993 ± 0.011
TTAAGTGTTT | 1 ± 0.022
CAAAAAGTAG | 1.014 ± 0.0062
TATAAGACAA | 1.02 ± 0.022
TTGGTAAAAG | 1.02 ± 0.033
AAATGTTTTT | 0.999 ± 0.028
AAAAAACCTA | 1.063 ± 0.008
TGCATTAATT | 0.992 ± 0.019
ATTATATGCG | 0.992 ± 0.0024
TTTAATTGGG | 0.983 ± 0.039
GCTGTCGCTT | 1.03 ± 0.027
GAGACCGTGT | 1.01 ± 0.052
TTGAGAGTTT | 1.04 ± 0.093
GGTGGGTGAG | 0.9745 ± 0.0094
AATCGGGGCG | 0.905 ± 0.016
GGGGATATAT | 1 ± 0.035
TTAAATTGGT | 0.99 ± 0.025
CGGTCTAGGG | 0.995 ± 0.019

Sequence | switch fluorescence ratio
TTGAAATTGG | 0.99 ± 0.031
CTTGGGTCTG | 1 ± 0.066
CGGAGGGGAA | 1 ± 0.014
GGGGAAGACT | 0.989 ± 0.016
AGGACGGGAT | 1.06 ± 0.056
AGATTTTTTG | 0.9926 ± 0.0073
TGCTTATTTG | 1 ± 0.023
TAGTTGGGGA | 1.03 ± 0.033
CGCGGTTGAC | 1.12 ± 0.03
GTTAGTGGCT | 0.9906 ± 0.0034
TTTTTTCCGT | 1.07 ± 0.16
CGCTCGTATT | 1.019 ± 0.009
TCAGAAGGCG | 0.981 ± 0.015
ATAGGGGAGT | 0.993 ± 0.03
TTGTTTGCAA | 1.52 ± 0.74
TGTTTATTCC | 1.11 ± 0.087
TTTTGTCATT | 1 ± 0.04
TCTAGGTAGA | 0.993 ± 0.026
TATTGGGGA | 0.958 ± 0.011
AGATTCGGTC | 1 ± 0.018
ACTGAAAAAG | 0.987 ± 0.019
TGTTTATTAG | 0.986 ± 0.01
TGAATAGGGC | 0.9882 ± 0.0097
GGCCTGCTCG | 0.988 ± 0.029
ATGTTTGATT | 0.999 ± 0.047

Sequence | switch fluorescence ratio
ATGTGGAGAC | 0.9921 ± 0.005
CGAGGGAATG | 1.1 ± 0.18
TGTAATCTAC | 1.06 ± 0.057
TGAGAGTGCG | 0.968 ± 0.027
CCAACCTGAT | 1.31 ± 0.18
GCTAGAGAGG | 1.04 ± 0.063
AAGAAACACA | 1.02 ± 0.038
GTTAAGGGGA | 0.999 ± 0.021
CTTTGAAGAG | 1.017 ± 0.0058
AATGACTCAT | 0.9808 ± 0.0049
TTGCAAGAGA | 1.022 ± 0.0082
AGGTTTGTGG | 0.976 ± 0.023
GTGTTAGGGT | 0.984 ± 0.035
TTTCACCTTT | 1.02 ± 0.047
GGCTACAGCG | 0.987 ± 0.0032
CATGGGAGAG | 1.05 ± 0.026
TTTGGAAAGT | 0.991 ± 0.025
AAAGAGTTGG | 0.99 ± 0.047
TGAAAATGCG | 1.01 ± 0.057
TAAAGGCTAC | 1.17 ± 0.2
CTTTATTTAG | 0.997 ± 0.023
CGAGCCTGGT | 1.02 ± 0.035
TGCGATAAGC | 1.026 ± 0.01
GATTAAATTT | 1.01 ± 0.033
CGGAGGGGTA | 1.13 ± 0.16

Sequence | switch fluorescence ratio
TGGGGGTGTC | 1.03 ± 0.024
CGGCGAGATA | 1.01 ± 0.029
TAAGCCGAGG | 0.987 ± 0.016
GCTGCCAACC | 1.11 ± 0.031
AAAGGAAAAC | 1 ± 0.022
CGTGGTTCAG | 0.996 ± 0.014
TTGGCGCCGT | 0.998 ± 0.044
TTGTGGCGTG | 1 ± 0.034
GTTGGAAGCA | 1.1 ± 0.18
AATTTTAATG | 0.997 ± 0.022
AAAATTTTTT | 1.07 ± 0.19
GGGAACTGGG | 1.04 ± 0.049
TTCTCTGGGG | 1.025 ± 0.0071
TGTGTGTTTA | 1.01 ± 0.012
AGGAAGTCTG | 1.03 ± 0.035
GGTATTTTGC | 0.979 ± 0.048
ATGTAGCATC | 1.56 ± 0.028
CCTGTTATGG | 1.01 ± 0.032
GGCATCAGGC | 1.03 ± 0.042
GAGGTACTAG | 1.02 ± 0.0023
AGATGGGTGG | 1.01 ± 0.025
TCATTGGGGT | 0.957 ± 0.033
AAAAGCGCT | 0.999 ± 0.025
TCGAATTTGT | 0.99 ± 0.03
ATTGTCTGAG | 1.01 ± 0.011

Source: the supplement of paper PMC10126150
